Measured values taken from US20250154231A1 (RQBIO COVID, published 2025).

How the values were obtained:
[1] = target: T1, Omicron BA.2.12.1 RBD (SARS-CoV-2, UniProt P0DTC2 333-528); assay: crystal structure of the ternary complex, 2.38 A
T1 construct: domain: RBD

[2] = target: T2, Omicron BA.2 RBD (SARS-CoV-2, UniProt P0DTC2 333-528); assay: SPR, single injection of RBD over the IgG
T2 construct: domain: RBD

[3] = target: T3, Omicron BA.1 RBD (SARS-CoV-2, UniProt P0DTC2 333-528); assay: ELISA
T3 construct: domain: RBD

[4] = target: T3, Omicron BA.1 RBD; assay: crystal structure of the complex

B1: Beta-27 Fab (Fab, V domains shown)
VH: EVQLLESGGGLVQPGGSLRLSCAASGLTVRSNYMNWVRQAPGKGLEWVSLIYSGGSTFYADSVKGRFTISRHDSKNTLYLQMNSLRAEDTAVYYCARDLVVYGMDVWGQGTTVTVSS
VL: DIQMTQSPGTLSLSPGERATLSCRASQSVSSSSLAWYQQKHGQAPRLLIYGTSSRATGIPDRFSGSGSGTDFTLTISGLEPEDFAVYYCQQYGSSPLFGGGTKVEIK
binding result [1]: binds

B2: Omi36 (antibody, V domains shown)
VH: EVQLVESGGGVVQPGGSLRLSCAASGIIVSANYMTWVRQAPGKGLEWVSVIYPGGSTFYADSVKGRFTISRDNSKNTLYLQMNSLRVEDSAVYYCARDLELAGFNDYWGQGTLVTVSS
VL: DIVMTQSPGTLSLSPGERATLSCRTSQSVSSNYLAWYQQKPGQAPRLLIYGASSRATGIPDRFSGSGSGTDFTLTISRLEPEDFAVYYCQQFGSSPRYTFGQGTKVEIK
binding result [2]: binds
binding result [3]: binds

B3: Omi-9 Fab (Fab, V domains shown)
VH: QVQLVESGGGVVQPGRSLRLSCAASGFTFRTYAVHWVRQAPGKGPEWVAVISYDGSNKYYADSVKGRFTLSRDTSKNTLYLQMNSLRAEDTAVYYCASRGDTVTTGDAFDIWGQGTMVTVSS
VL: SYELTQPPSVSVSPGQTARITCSGDALPKQYTYWYQQKPGQPPVLVIYKDSERPSGIPERFSGSSSGTTVTLTISGVQAEDEADYYCQSTDSSATYPGNVVFGGGTKLTVL
binding result [4]: binds
